Literature values, collected in PMC10561060.

Target: chemoreceptor C-terminal pentapeptide (Escherichia coli)
Assay: ITC

Row | Substance | Kd
1 | CheB (from UniProt P07330) | 160 µM
2 | CheR (from UniProt P07364) | 2 µM
